Data reported in patent US20120219551A1 (MacroGenics, published 2012).

Biological target: T1, soluble dimeric FcγRIIB-Fc fusion protein (extracellular domain of FcγRIIB fused to hinge-CH2-CH3 of human … (human, UniProt P31994 43-217))
T1 construct: extracellular domain; also called FcRIIB-Fc; 2bfcagl; not shown: human IgG2 hinge-CH2-CH3
T1 sequence (looked up): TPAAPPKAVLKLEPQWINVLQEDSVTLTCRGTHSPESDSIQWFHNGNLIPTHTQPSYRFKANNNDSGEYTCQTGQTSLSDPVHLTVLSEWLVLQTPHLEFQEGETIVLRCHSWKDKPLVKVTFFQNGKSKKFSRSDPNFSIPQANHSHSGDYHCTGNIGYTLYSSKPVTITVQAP
Assay: SPR (BIAcore), Fc mutant in ch4-4-20, off rate relative to wild type

Koff WT/Mut: 0.62
B1: ch4-4-20 MgFc66 (A330V, V427M) (antibody)
chain 1: not shown
chain 2: DVVMTQTPLSLPVSLGDQASISCRSSQSLVHSNGNTYLRWYLQKPGQSPKVLIYKVSNRFSGVPDRFSGSGSGTDFTLKISRVEAEDLGVYFCSQSTHVPWTFGGGTKLEIKRTVAAPSVFIFPPSDEQLKSGTASVVCLLNNFYPREAKVQWKVDNALQSGNSQESVTEQDSKDSTYSLSSTLTLSKADYEKHKVYACEVTHQGLSSPVTKSFNRGEC
